Test results: patent US20170362301A1 (Janssen / Centocor, published 2017)

B1: P54AR4-83v2 A3C, NEM conjugate (designed binder)
chain: LPCPKNLVVSEVTEDSARLSWDDPWAFYESFLIQYQESEKVGEAIVLTVPGSERSYDLTGLKPGTEYTVSIYGVHNVYKDTNMRGLPLSAIFTT
modifications: NEM on Cys 3
notes: His-tagged
B2: P54AR4-83v2 A26C, NEM conjugate (designed binder)
chain: LPAPKNLVVSEVTEDSARLSWDDPWCFYESFLIQYQESEKVGEAIVLTVPGSERSYDLTGLKPGTEYTVSIYGVHNVYKDTNMRGLPLSAIFTT
modifications: NEM on Cys 26
notes: His-tagged
B3: P54AR4-83v2 A90C, NEM conjugate (designed binder)
chain: LPAPKNLVVSEVTEDSARLSWDDPWAFYESFLIQYQESEKVGEAIVLTVPGSERSYDLTGLKPGTEYTVSIYGVHNVYKDTNMRGLPLSCIFTT
modifications: NEM on Cys 90
notes: His-tagged
B4: P54AR4-83v2 D15C, NEM conjugate (designed binder)
chain: LPAPKNLVVSEVTECSARLSWDDPWAFYESFLIQYQESEKVGEAIVLTVPGSERSYDLTGLKPGTEYTVSIYGVHNVYKDTNMRGLPLSAIFTT
modifications: NEM on Cys 15
notes: His-tagged
B5: P54AR4-83v2 D22C, NEM conjugate (designed binder)
chain: LPAPKNLVVSEVTEDSARLSWCDPWAFYESFLIQYQESEKVGEAIVLTVPGSERSYDLTGLKPGTEYTVSIYGVHNVYKDTNMRGLPLSAIFTT
modifications: NEM on Cys 22
notes: His-tagged
B6: P54AR4-83v2 D23C, NEM conjugate (designed binder)
chain: LPAPKNLVVSEVTEDSARLSWDCPWAFYESFLIQYQESEKVGEAIVLTVPGSERSYDLTGLKPGTEYTVSIYGVHNVYKDTNMRGLPLSAIFTT
modifications: NEM on Cys 23
notes: His-tagged
B7: P54AR4-83v2 D80C, NEM conjugate (designed binder)
chain: LPAPKNLVVSEVTEDSARLSWDDPWAFYESFLIQYQESEKVGEAIVLTVPGSERSYDLTGLKPGTEYTVSIYGVHNVYKCTNMRGLPLSAIFTT
modifications: NEM on Cys 80
notes: His-tagged
B8: P54AR4-83v2 E11C, NEM conjugate (designed binder)
chain: LPAPKNLVVSCVTEDSARLSWDDPWAFYESFLIQYQESEKVGEAIVLTVPGSERSYDLTGLKPGTEYTVSIYGVHNVYKDTNMRGLPLSAIFTT
modifications: NEM on Cys 11
notes: His-tagged
B9: P54AR4-83v2 E14C, NEM conjugate (designed binder)
chain: LPAPKNLVVSEVTCDSARLSWDDPWAFYESFLIQYQESEKVGEAIVLTVPGSERSYDLTGLKPGTEYTVSIYGVHNVYKDTNMRGLPLSAIFTT
modifications: NEM on Cys 14
notes: His-tagged
B10: P54AR4-83v2 E29C, NEM conjugate (designed binder)
chain: LPAPKNLVVSEVTEDSARLSWDDPWAFYCSFLIQYQESEKVGEAIVLTVPGSERSYDLTGLKPGTEYTVSIYGVHNVYKDTNMRGLPLSAIFTT
modifications: NEM on Cys 29
notes: His-tagged
B11: P54AR4-83v2 E39C, NEM conjugate (designed binder)
chain: LPAPKNLVVSEVTEDSARLSWDDPWAFYESFLIQYQESCKVGEAIVLTVPGSERSYDLTGLKPGTEYTVSIYGVHNVYKDTNMRGLPLSAIFTT
modifications: NEM on Cys 39
notes: His-tagged
B12: P54AR4-83v2 E43C, NEM conjugate (designed binder)
chain: LPAPKNLVVSEVTEDSARLSWDDPWAFYESFLIQYQESEKVGCAIVLTVPGSERSYDLTGLKPGTEYTVSIYGVHNVYKDTNMRGLPLSAIFTT
modifications: NEM on Cys 43
notes: His-tagged
B13: P54AR4-83v2 E53C, NEM conjugate (designed binder)
chain: LPAPKNLVVSEVTEDSARLSWDDPWAFYESFLIQYQESEKVGEAIVLTVPGSCRSYDLTGLKPGTEYTVSIYGVHNVYKDTNMRGLPLSAIFTT
modifications: NEM on Cys 53
notes: His-tagged
B14: P54AR4-83v2 F27C, NEM conjugate (designed binder)
chain: LPAPKNLVVSEVTEDSARLSWDDPWACYESFLIQYQESEKVGEAIVLTVPGSERSYDLTGLKPGTEYTVSIYGVHNVYKDTNMRGLPLSAIFTT
modifications: NEM on Cys 27
notes: His-tagged
B15: P54AR4-83v2 F31C, NEM conjugate (designed binder)
chain: LPAPKNLVVSEVTEDSARLSWDDPWAFYESCLIQYQESEKVGEAIVLTVPGSERSYDLTGLKPGTEYTVSIYGVHNVYKDTNMRGLPLSAIFTT
modifications: NEM on Cys 31
notes: His-tagged
B16: P54AR4-83v2 G42C, NEM conjugate (designed binder)
chain: LPAPKNLVVSEVTEDSARLSWDDPWAFYESFLIQYQESEKVCEAIVLTVPGSERSYDLTGLKPGTEYTVSIYGVHNVYKDTNMRGLPLSAIFTT
modifications: NEM on Cys 42
notes: His-tagged
B17: P54AR4-83v2 G51C, NEM conjugate (designed binder)
chain: LPAPKNLVVSEVTEDSARLSWDDPWAFYESFLIQYQESEKVGEAIVLTVPCSERSYDLTGLKPGTEYTVSIYGVHNVYKDTNMRGLPLSAIFTT
modifications: NEM on Cys 51
notes: His-tagged
B18: P54AR4-83v2 G60C, NEM conjugate (designed binder)
chain: LPAPKNLVVSEVTEDSARLSWDDPWAFYESFLIQYQESEKVGEAIVLTVPGSERSYDLTCLKPGTEYTVSIYGVHNVYKDTNMRGLPLSAIFTT
modifications: NEM on Cys 60
notes: His-tagged
B19: P54AR4-83v2 G64C, NEM conjugate (designed binder)
chain: LPAPKNLVVSEVTEDSARLSWDDPWAFYESFLIQYQESEKVGEAIVLTVPGSERSYDLTGLKPCTEYTVSIYGVHNVYKDTNMRGLPLSAIFTT
modifications: NEM on Cys 64
notes: His-tagged
B20: P54AR4-83v2 G73C, NEM conjugate (designed binder)
chain: LPAPKNLVVSEVTEDSARLSWDDPWAFYESFLIQYQESEKVGEAIVLTVPGSERSYDLTGLKPGTEYTVSIYCVHNVYKDTNMRGLPLSAIFTT
modifications: NEM on Cys 73
notes: His-tagged
B21: P54AR4-83v2 G85C, NEM conjugate (designed binder)
chain: LPAPKNLVVSEVTEDSARLSWDDPWAFYESFLIQYQESEKVGEAIVLTVPGSERSYDLTGLKPGTEYTVSIYGVHNVYKDTNMRCLPLSAIFTT
modifications: NEM on Cys 85
notes: His-tagged
B22: P54AR4-83v2 H75C, NEM conjugate (designed binder)
chain: LPAPKNLVVSEVTEDSARLSWDDPWAFYESFLIQYQESEKVGEAIVLTVPGSERSYDLTGLKPGTEYTVSIYGVCNVYKDTNMRGLPLSAIFTT
modifications: NEM on Cys 75
notes: His-tagged
B23: P54AR4-83v2 I45C, NEM conjugate (designed binder)
chain: LPAPKNLVVSEVTEDSARLSWDDPWAFYESFLIQYQESEKVGEACVLTVPGSERSYDLTGLKPGTEYTVSIYGVHNVYKDTNMRGLPLSAIFTT
modifications: NEM on Cys 45
notes: His-tagged
B24: P54AR4-83v2 I91C, NEM conjugate (designed binder)
chain: LPAPKNLVVSEVTEDSARLSWDDPWAFYESFLIQYQESEKVGEAIVLTVPGSERSYDLTGLKPGTEYTVSIYGVHNVYKDTNMRGLPLSACFTT
modifications: NEM on Cys 91
notes: His-tagged; also called 191C
B25: P54AR4-83v2 K5C, NEM conjugate (designed binder)
chain: LPAPCNLVVSEVTEDSARLSWDDPWAFYESFLIQYQESEKVGEAIVLTVPGSERSYDLTGLKPGTEYTVSIYGVHNVYKDTNMRGLPLSAIFTT
modifications: NEM on Cys 5
notes: His-tagged
B26: P54AR4-83v2 K40C, NEM conjugate (designed binder)
chain: LPAPKNLVVSEVTEDSARLSWDDPWAFYESFLIQYQESECVGEAIVLTVPGSERSYDLTGLKPGTEYTVSIYGVHNVYKDTNMRGLPLSAIFTT
modifications: NEM on Cys 40
notes: His-tagged
B27: P54AR4-83v2 K62C, NEM conjugate (designed binder)
chain: LPAPKNLVVSEVTEDSARLSWDDPWAFYESFLIQYQESEKVGEAIVLTVPGSERSYDLTGLCPGTEYTVSIYGVHNVYKDTNMRGLPLSAIFTT
modifications: NEM on Cys 62
notes: His-tagged
B28: P54AR4-83v2 K79C, NEM conjugate (designed binder)
chain: LPAPKNLVVSEVTEDSARLSWDDPWAFYESFLIQYQESEKVGEAIVLTVPGSERSYDLTGLKPGTEYTVSIYGVHNVYCDTNMRGLPLSAIFTT
modifications: NEM on Cys 79
notes: His-tagged
B29: P54AR4-83v2 L7C, NEM conjugate (designed binder)
chain: LPAPKNCVVSEVTEDSARLSWDDPWAFYESFLIQYQESEKVGEAIVLTVPGSERSYDLTGLKPGTEYTVSIYGVHNVYKDTNMRGLPLSAIFTT
modifications: NEM on Cys 7
notes: His-tagged

Key:
[1] = biological target: T1, EGFR (form in the assay not stated) (human, UniProt P00533 25-645, limits assumed); assay: ELISA, NEM conjugate 10 nM
[2] = biological target: T1, EGFR (form in the assay not stated); assay: ELISA, NEM conjugate 100 nM
[3] = biological target: T1, EGFR (form in the assay not stated); assay: ELISA, NEM conjugate 500 nM

Row | Binder | binding ratio vs parent P54AR4-83v2 [1] [ratio] | binding ratio vs parent P54AR4-83v2 [2] [ratio] | binding ratio vs parent P54AR4-83v2 [3] [ratio]
1 | B1 | 0.34 | 0.88 | 0.82
2 | B2 | 0.95 | 1.06 | 0.95
3 | B3 | 0.94 | 1.05 | 1.01
4 | B4 | 0.98 | 1.09 | 0.97
5 | B5 | 0.84 | 1.02 | 0.9
6 | B6 | 0.02 | 0.2 | 0.4
7 | B7 | 0.7 | 0.97 | 0.91
8 | B8 | 0.9 | 1.08 | 0.95
9 | B9 | 1.11 | 1.27 | 1.15
10 | B10 | 0.89 | 1.07 | 0.93
11 | B11 | 0.9 | 1 | 0.9
12 | B12 | 0.68 | 1.04 | 0.92
13 | B13 | 0.91 | 1.02 | 0.91
14 | B14 | 0 | 0.07 | 0.23
15 | B15 | 0.04 | 0.34 | 0.62
16 | B16 | 0.84 | 0.99 | 0.9
17 | B17 | 0.88 | 1.03 | 0.92
18 | B18 | 0.86 | 1.02 | 0.93
19 | B19 | 1.28 | 1.42 | 1.36
20 | B20 | 0 | 0.02 | 0.21
21 | B21 | 0.19 | 0.02 | 0.29
22 | B22 | 0.07 | 0.19 | 0.25
23 | B23 | 0.91 | 1.04 | 0.93
24 | B24 | 0.9 | 1.01 | 1
25 | B25 | 0.61 | 1.06 | 0.92
26 | B26 | 0.88 | 0.95 | 0.86
27 | B27 | 0.64 | 0.73 | 0.61
28 | B28 | 0.9 | 0.99 | 0.93
29 | B29 | 0.35 | 1 | 0.9
